Assay results published in patent US20050065327A1 (AstraZeneca / MedImmune, published 2005).
Numbering of substitutions follows the chain as printed.

B1: BAK502G9 IgG4 (antibody, V domains shown)
VH: QVQLVQSGAEVKKPGASVKVSCKASGYTFTNYGLSWVRQAPGQGLEWMGWISANNGDTNYGQEFQGRVTMTTDTSTSTAYMELRSLRSDDTAVYYCARDSSSSWARWFFDLWGRGTLVTVSS
VL: SYVLTQPPSVSVAPGKTARITCGGNIIGSKLVHWYQQKPGQAPVLVIYDDGDRPSGIPERFSGSNSGNTATLTISRVEAGDEADYYCQVWDTGSDPVVFGGGTKLTVL
B2: BAK1167F2 scFv (scFv, V domains shown)
VH: B1 VH with T30E, N31Q, Y32T, L34V
VL: B1 VL
B3: BAK1183H4 scFv (scFv, V domains shown)
VH: B1 VH with S52N, A53Y, N54D, N55G, D57N, N59Q
VL: B1 VL
B4: BAK502G9 scFv (scFv, V domains shown)
VH: B1 VH
VL: B1 VL
B5: BAK1183H4 IgG4 (antibody, V domains shown)
VH: B1 VH with S52N, A53Y, N54D, N55G, D57N, N59Q
VL: B1 VL

Columns and labels:
Test in all cases: cell-based or functional assay
[1] = target: non-human primate IL-13 (rhesus and cynomolgus, identical sequences) with carboxyl terminus affinity tag … (rhesus and cynomolgus monkey)
Chain of non-human primate IL-13 (rhesus and cynomolgus, identical sequences) with carboxyl terminus affinity tag … (rhesus and cynomolgus monkey) (Q864V6 19-132): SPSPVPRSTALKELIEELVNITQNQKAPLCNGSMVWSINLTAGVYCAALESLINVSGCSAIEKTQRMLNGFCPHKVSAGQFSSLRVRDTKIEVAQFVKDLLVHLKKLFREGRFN

[2] = target: human IL-13 (recombinant, bacterially derived, Peprotech) (human, UniProt P35225 15-146)
Chain of human IL-13 (recombinant, bacterially derived, Peprotech) (P35225 other isoform, or with tags, fused parts or gaps): as the sequence (Q864V6 19-132) above, with S3G, R7P, K12R, V44M, N69S, R85H, V102L counted along it

[3] = target: native (naturally occurring) human IL-13 released from HDLM-2 cells (human, UniProt P35225 15-146)
Chain of native (naturally occurring) human IL-13 released from HDLM-2 cells (P35225 other isoform, or with tags, fused parts or gaps): as the sequence (Q864V6 19-132) above, with S3G, R7P, K12R, V44M, N69S, R85H, V102L counted along it

Row | Binder | Mean TF1 IC50 [2] | further results
1 | B1 | – | IC50, TF-1 cell proliferation assay [1]: 2 nM
2 | B2 | 0.2 nM | –
3 | B3 | 0.2 nM | –
4 | B4 | 8 nM | –
5 | B5 | – | IC50, HDLM-2 cell proliferation assay [3]: 3.5 µM
